Assay results as given in patent US20250026844A1 (SHANDONG SIMCERE BIOPHARMACEUTICAL, published 2025).
“And” between values parts separate entries of the source, which are not always exact repeats. Identical values can stand only once. Like-named read-outs stand apart in the source and are kept apart here.

Assays:
human BCMA on cells [1] = target: T1, human BCMA on cells (human, UniProt Q02223 1-184); assay: FACS, H929 cells
T1 construct: whole, on cells; also called H929 cells; U266 cells
T1 sequence (looked up): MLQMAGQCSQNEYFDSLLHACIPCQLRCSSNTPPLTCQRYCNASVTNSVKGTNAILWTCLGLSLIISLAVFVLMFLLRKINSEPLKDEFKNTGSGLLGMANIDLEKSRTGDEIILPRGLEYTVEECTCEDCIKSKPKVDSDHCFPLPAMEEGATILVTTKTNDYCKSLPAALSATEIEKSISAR
Procedure: (§1) H929 cells and U266 cells were scale-up cultured in T-75 cell culture flasks to the logarithmic growth phase, and the cells were pipetted into a single cell suspension. After the cells were counted, the cells were centrifuged and the cell pellet was resuspended in FACS buffer (PBS+2% fetal calf serum) to 2×10⁶ cells per ml, and the suspension was added to the 96-well FACS reaction plate at 50 μl per well, REGN5459-hlgG1 and HPN217-hHcAb antibodies were used as primary antibodies, and APC-labeled goat anti-human IgG (H+L) secondary antibodies (purchased from Jackson, catalog number: 109-605-088) were detected and analyzed by FACS (FACS Canto™, purchased from BD Corporation). The results are shown in Table 4 and FIGS. 2A and 2B, and indicate that both H929 cells and U266 cells can bind to REGN5459-hlgG1 and HPN217-hHcAb antibodies.

human BCMA on cells [2] = target: T1, human BCMA on cells; assay: FACS, U266 cells
Procedure: as §1

human BCMA on cells [3] = target: T1, human BCMA on cells; assay: FACS, H929 cells; remark: listed apart in the source
Procedure: (§2) The desired cells were scale-up cultured in T-75 cell culture flasks to the logarithmic growth phase, and the cells were pipetted into a single cell suspension. After the cells were counted, the cells were centrifuged and the cell pellet was resuspended in FACS buffer (PBS+2% fetal calf serum) to 2×10⁶ cells per ml, and the suspension was added to the 96-well FACS reaction plate at 50 μl per well, then the sample to be tested of the candidate antibody was added at 50 μl per well and the mixture was incubated at 4° C. for 1 h. The obtained mixture was centrifuged and washed 3 times with a PBS buffer. Secondary antibody anti-hlgG(Fc) Alexa 647 (purchased from Jackson, catalog number: 109-605-098) was added at 50 μl/well, and incubated on ice for 1 h. The obtained mixture was centrifuged and washed 3 times with a PBS buffer. 100 μl of the mixture was taken for detection and result analysis by FACS (FACS Canto™, purchased from BD Company). Data analysis was performed by software (FlowJo) to obtain the mean fluorescence intensity (MFI) of the cells. Then, a software (GraphPad Prism8) was used for analysis, data fitting and EC50 calculation. BCMA-Lab05, BCMA-Lab06, and BCMA-Lab08 had poor binding to H929 and U266 cells, while the other antibodies performed better.

human BCMA on cells [4] = target: T1, human BCMA on cells; assay: FACS, U266 cells; remark: listed apart in the source
Procedure: as §2

human BCMA on cells [5] = target: T1, human BCMA on cells; assay: FACS, H929 cells; remark: listed apart in the source
Procedure: as §2
(§3) The specific method was the same as in Example 4(B).

human BCMA on cells [6] = target: T1, human BCMA on cells; assay: FACS, U266 cells; remark: listed apart in the source
Procedure: as §2, §3

human BCMA-His protein [7] = target: T2, human BCMA-His protein (human, UniProt Q02223 1-54); assay: SPR (Biacore), antibody captured on Protein A chip, BCMA-His in solution
T2 construct: Bought protein; also called human BCMA protein; huBCMA-His; not shown: His tag
T2 sequence (looked up): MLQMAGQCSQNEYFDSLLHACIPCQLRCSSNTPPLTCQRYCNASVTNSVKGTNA
Procedure: (§4) The flow cell was set to 25° C. The sample block was set to 16° C. Both were pretreated with the running buffer. In each cycle, an antibody to be detected was first captured with a Protein A chip, and then a single concentration of BCMA antigen protein was injected. The binding and dissociation processes of the antibody and the antigen protein were recorded, and finally Glycine pH 1.5 (GE Healthcare; BR-1003-54) was used to complete chip regeneration. Binding was measured by injecting different concentrations of BCMA-His in solution for 240 s with a flow rate of 30 μL/min. The concentration started from 200 nM (see the detailed results for the actual concentration in the test) and was diluted at 1:1, making a total of 5 concentrations. The dissociation phase was monitored for up to 600 s and was triggered by switching from sample solution to running buffer. The surface was regenerated by washing with a 10 mM glycine solution (pH 1.5) for 30 s at a flow rate of 30 μL/min. Bulk refractive index difference was corrected by subtracting the response obtained from the goat anti-human Fc surface. Blank injection was also subtracted (=double reference). For calculation of apparent KD and other kinetic parameters, Langmuir 1:1 model was used. The binding rate (Kₐ), dissociation rate (Kdis) and binding affinity (KD) of the recombinant candidate antibody to human BCMA protein are shown in the table, wherein REGN5459-hlgG1 antibody was used as a control.

human BCMA-His protein [8] = target: T2, human BCMA-His protein; assay: as above; remark: listed apart in the source
Procedure: as §4
The specific operating method referred to Example 5. The binding rate (Ka), dissociation rate (Kdis) and binding affinity (KD) of the humanized candidate nanobodies to human BCMA protein are shown Table 18, wherein REGN5459-hlgG1 antibody was used as a control.

human BCMA-His protein [9] = target: T2, human BCMA-His protein; assay: as above; remark: listed apart in the source
Procedure: as §4
According to the method in Example 5, Biacore was used to detect the affinity of the recombinant antibodies to human BCMA protein.

human BCMA-His protein [10] = target: T2, human BCMA-His protein; assay: ELISA, plate coated with human BCMA-His 1 ug/mL, antibody titrated from 100 nM, HRP secondary antibody, OD450
Procedure: (§5) The specific method was as follows: Human BCMA protein (purchased from Acro, catalog number: BCA-H522y) and monkey BCMA protein (purchased from Acro, catalog number: BCA-C52H7) were diluted with PBS to a final concentration of 1 μg/mL, respectively, and then added to a 96-well ELISA plate at 50 al/well. The plate was sealed with a plastic film and incubated overnight at 4° C., the plate was washed twice with PBS the next day, and then a blocking solution [PBS+2% (w/v) BSA] was added for blocking at room temperature for 2 h. The blocking solution was discarded, the plate was washed 3 times with PBS, and 100 nM BCMA recombinant chimeric nanobody diluted gradiently or negative control antibody was added at 50 μl/well. After incubation at 37° C. for 2 h, the plate was washed 3 times with PBS. HRP (horseradish peroxidase)-labeled secondary antibody (purchased from Merck, catalog number: AP113P) was added, and incubated at 37° C. for 1 h, and the plate was washed 5 times with PBS. TMB substrate was added at 50 μl/well, and incubated at room temperature for 10 min, then a stop solution (1.0 M HCl) was added at 50 μl/well. The OD450 nm values were read by an ELISA microplate reader (Multimode Plate Reader, EnSight, purchased from Perkin Elmer). All antibodies bound to human BCMA protein. BCMA-Lab06 and BCMA-Lab07 had no cross-binding activity with monkey BCMA protein. […]

monkey BCMA-His protein [11] = target: T3, monkey BCMA-His protein (monkey, UniProt A0A2K5UD97 1-53); assay: ELISA, plate coated with monkey BCMA-His 1 ug/mL, antibody titrated from 100 nM, HRP secondary antibody, OD450
T3 construct: Bought protein; also called monkey BCMA protein; CynoBCMA-his
T3 sequence (A0A2K5UD97 entry or part of it limits assumed): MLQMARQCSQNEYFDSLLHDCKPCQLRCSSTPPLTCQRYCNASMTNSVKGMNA
Procedure: as §5

monkey BCMA-His protein [12] = target: T3, monkey BCMA-His protein; assay: as above; remark: listed apart in the source
Procedure: The binding activity of the control antibody to human BCMA-His protein (purchased from Acro, catalog number: BCA-H522y) and monkey BCMA-His protein (purchased from Acro, catalog number: BCA-C52H7) was detected by ELISA. The specific method was as follows: The antigen protein was diluted with PBS to a final concentration of 1 μg/mL, and then added to a 96-well ELISA plate at 50 μl per well. The plate was sealed with a plastic film and incubated overnight at 4° C., the plate was washed twice with PBS the next day, and then a blocking solution [PBS+2% (w/v) BSA] was added for blocking at room temperature for 2 h. The blocking solution was poured off and 50 μl of 100 nM serially diluted control antibody or negative control antibody was added to each well. After incubation at 37° C. for 2 h, the plate was washed 3 times with PBS. HRP (horseradish peroxidase)-labeled secondary antibody (purchased from Merck, catalog number: AP113P) was added, and incubated at 37° C. for 1 h, and the plate was washed 5 times with PBS. TMB substrate was added at 50 μl/well, and incubated at room temperature for 10 min, then a stop solution (1.0 M HCl) was added at 50 al/well. The OD450 nm values were read by an ELISA microplate reader (Multimode Plate Reader, EnSight, purchased from Perkin Elmer). The results are shown in Tables 2 and 3 and FIGS. 1A and 1B. […]

human BCMA-His protein [13] = target: T2, human BCMA-His protein; assay: ligand competition ELISA: plate coated with human BCMA protein 1 ug/mL, antibody titrated, blocked ligand hAPRIL-biotin 0.5 ug/mL, OD450
Procedure: The antigen protein was diluted with PBS to a final concentration of 1 μg/mL, and then added to a 96-well ELISA plate at 50 μl per well. The plate was sealed with a plastic film and incubated overnight at 4° C., the plate was washed twice with PBS the next day, and then a blocking solution [PBS+2% (w/v) BSA] was added for blocking at room temperature for 2 h. The blocking solution was discarded, the plate was washed 3 times with PBS, and 200 nM BCMA recombinant chimeric nanobody diluted gradiently or negative control antibody was added at 50 μl/well. hAPRIL-biotin (purchased from Acro, catalog number: APL-H82F5) was diluted to 0.5 μg/mL, with 50 μl per well. After incubation at 37° C. for 1.5 h, the plate was washed 3 times with PBS. HRP (horseradish peroxidase)-labeled secondary antibody (purchased from Sigma, catalog number: S2438-250 μg) was added, and incubated at 37° C. for 1 h, and the plate was washed 5 times with PBS. TMB substrate was added at 50 μl/well, and incubated at room temperature for 10 min, then a stop solution (1.0 M HCl) was added at 50 al/well. The OD450 nm values were read by an ELISA microplate reader (Multimode Plate Reader, EnSight, purchased from Perkin Elmer). BCMA-Lab05, BCMA-Lab06 and BCMA-Lab08 had average blocking effects, while the other antibodies had good blocking effects.

human BCMA-His protein [14] = target: T2, human BCMA-His protein; assay: as above; remark: listed apart in the source

B1: REGN5459-hIgG1 (antibody, V domains shown)
VH: EVQLVESGGGLVQPGGSLRLSCAASGFTFSNFWMTWVRQAPGKGLEWVANMNQDGSEKYYVDSVKGRFTISRDNAKSSLYLQMNSLRAEDTAVYYCARDREYCISTSCYDDFDYWGQGTLVTVSS
VL: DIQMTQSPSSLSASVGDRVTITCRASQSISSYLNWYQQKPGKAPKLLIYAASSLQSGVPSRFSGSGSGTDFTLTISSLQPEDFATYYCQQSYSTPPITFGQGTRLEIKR
notes: Control antibody; also called REGN5459-hlgG1; BCMA antibody
EC50 (human BCMA on cells [1]): 6.78 nM
EC50 (human BCMA on cells [2]): 9.12 nM
EC50 (human BCMA on cells [3]): 5.24 nM and 9.39 nM and 6.46 nM
EC50 (human BCMA on cells [4]): 7.14 nM and 16.6 nM and 9.49 nM
EC50 (human BCMA on cells [5]): 9.39 nM and 13.2 nM
EC50 (human BCMA on cells [6]): 16.6 nM and 32.2 nM
Kd (human BCMA-His protein [7]): 0.233 nM
koff (human BCMA-His protein [7]): 0.000178 s⁻¹
kon (human BCMA-His protein [7]): 766000 M⁻¹ s⁻¹
Kd (human BCMA-His protein [8]): 0.208 nM
koff (human BCMA-His protein [8]): 0.000162 s⁻¹
kon (human BCMA-His protein [8]): 781000 M⁻¹ s⁻¹
Kd (human BCMA-His protein [9]): 0.267 nM
koff (human BCMA-His protein [9]): 0.000197 s⁻¹
kon (human BCMA-His protein [9]): 739000 M⁻¹ s⁻¹
EC50 (read off the curve) (human BCMA-His protein [10]): ~0.1 nM
EC50 (read off the curve) (monkey BCMA-His protein [11]): ~0.1 nM
EC50 (read off the curve) (monkey BCMA-His protein [12]): ~0.1 nM
IC50 (read off the curve) (human BCMA-His protein [13]): ~6 nM and ~5 nM
IC50 (read off the curve) (human BCMA-His protein [14]): ~5 nM
